According to the Immune Epitope Database (IEDB):

What follows are sequences tested against HLA-A*01:01 (assay: IEDB peptide-MHC binding, purified MHC/competitive/fluorescence; ≥ and ≤ were set here for values at or beyond the usual limits of such assays). Details: source organism: Plasmodium falciparum.

Point of comparison: STEEEKDDIK, IC50 6.83 µM. Against it:
- NNEDYKNVDY — within 1.5-fold, 7.99 µM
- YIDTIKFIHK — 4.5-fold lower, 1.51 µM
- DSCVPNTNEY — higher, ≥ 100 µM
- LNDEYIVSY — 4.1-fold higher, 28.1 µM
- LTIIYIHLF — higher, ≥ 100 µM
- GEEDETHIY — higher, ≥ 261 µM
- FNDVPIKMEY — 14-fold lower, 0.498 µM
- IPDNDKNSNY — 2.2-fold higher, 14.7 µM
- DTDSNHTPSN — within 1.5-fold, 5.88 µM
- TLNDEYIVSY — higher, ≥ 213 µM
- NTNGIRYHY — 1.6-fold lower, 4.38 µM
- FLDYYKHLSY — 11-fold lower, 0.646 µM
- STCYGNRFNY — 7.9-fold higher, 54 µM
- LSDTLQLHED — higher, ≥ 100 µM
- STDPHTNSNN — higher, ≥ 100 µM
- NSIYHKSSTY — higher, ≥ 100 µM
- HLDFVIIPHY — higher, ≥ 118 µM
- NEDYKNVDY — within 1.5-fold, 8.92 µM
- NSILIKPEKY — higher, ≥ 109 µM
- SECDIGLIY — higher, ≥ 100 µM
- DVSTLNDEY — 7.6-fold higher, 52.2 µM
- SIEIVERSNY — 1.8-fold higher, 12.1 µM
- LTPVATGNQY — 2.7-fold lower, 2.56 µM
- SIYHKSSTY — higher, ≥ 100 µM
- RTFKKMMDEY — higher, ≥ 100 µM
- TSSLIKQNKY — 5.4-fold higher, 37.1 µM
- ENDYAYLNKY — 6.2-fold higher, 42.2 µM
- FTYDSEEYY — 50-fold lower, 0.136 µM
- NKNDDSYRY — within 1.5-fold, 6.68 µM
- ASDQPKQYEQ — higher, ≥ 126 µM
- HREHPKEYEY — 1.6-fold higher, 11.1 µM
- NLFEQLSCY — higher, ≥ 100 µM

These sequences were tested against HLA-A*02:01 in the same assay as above. Details: source organism: Plasmodium falciparum.

Point of comparison: FVLENGVCI, IC50 4.17 µM. Against it:
- SLFITSDHL — 1.7-fold higher, 7.12 µM
- SMIKSAFLPT — 3-fold higher, 12.5 µM
- HLNNIFHHL — 19-fold lower, 0.225 µM
- VLLLSAFEFT — higher, ≥ 100 µM
- SLIKQNKYV — 7.2-fold higher, 29.9 µM
- KLPLESSTI — 2-fold lower, 2.12 µM
- RQMLYNTFYS — higher, ≥ 319 µM
- FLQYHFKEL — 3.5-fold higher, 14.6 µM
- AVLATILMV — 5.7-fold higher, 23.6 µM
- SVLNGNDNTI — higher, ≥ 640 µM
- YIYIDTIKFI — 13-fold higher, 53.1 µM
- KRASHTTPV — higher, ≥ 100 µM
- KMYSEFKSI — 4.1-fold lower, 1.02 µM
- YLNKYVYTI — 12-fold lower, 0.342 µM
- NLFSSIEIV — 2.7-fold lower, 1.55 µM
- DMSNEYSLFI — higher, ≥ 100 µM
- FLPTGAFKA — 3-fold lower, 1.39 µM
- YMGNPWTEYM — 5.1-fold higher, 21.4 µM
- KINETYDKV — 2.4-fold higher, 10.1 µM
- YLNTNVNDGL — within 1.5-fold, 2.83 µM
- KLGVQYFFL — 5.2-fold lower, 0.805 µM
- FIPSHNSFI — 7.4-fold higher, 31 µM
- YIHKLILSV — 3.6-fold lower, 1.15 µM
- FQYNDDASI — 15-fold lower, 0.275 µM
- VLNGNDNTI — 1.8-fold higher, 7.31 µM
- FISDDKDSL — higher, ≥ 336 µM
- ILDMSNEYSL — 1.6-fold higher, 6.87 µM
- YIYNQIIWKI — 2.1-fold lower, 1.95 µM
- KVKDSWITL — within 1.5-fold, 4.01 µM
- YIFFNNENSI — within 1.5-fold, 2.83 µM
- YVGDNINNV — 2.3-fold lower, 1.82 µM
- VQYFFLRPYI — higher, ≥ 100 µM
- CLINNSSYI — within 1.5-fold, 3.82 µM
- KMMDEYNTKK — higher, ≥ 511 µM
- NIFHHLIYV — 1.8-fold lower, 2.29 µM

The sequences below were run against HLA-A*03:01 in the same assay as above. Details: source organism: Plasmodium falciparum.

Point of comparison: LICGVSPYK, IC50 0.419 µM. Against it:
- FISDDKDSLK — higher, ≥ 697 µM
- FVCSNRDFLK — higher, ≥ 100 µM
- GSYIYIDTIK — higher, ≥ 70.8 µM
- KLNIWRTFQK — 6-fold higher, 2.5 µM
- RTFQKDELLK — 58-fold higher, 24.2 µM
- NVNFLQYHFK — higher, ≥ 100 µM
- HTKIINDKTK — higher, ≥ 73 µM
- LSSYVSLPLK — 1.6-fold higher, 0.654 µM
- STCRFFVCK — 14-fold higher, 5.9 µM
- KVKSKCNDIK — 94-fold higher, 39.3 µM
- PVATGNQYLK — higher, ≥ 328 µM
- SAFLPTGAFK — within 1.5-fold, 0.345 µM
- TLNDEYIVSY — higher, ≥ 304 µM
- CVCTYNYYKK — 34-fold higher, 14.4 µM
- FLDYYKHLSY — higher, ≥ 100 µM
- STCYGNRFNY — higher, ≥ 100 µM
- HIYVQKKVK — 2.1-fold higher, 0.897 µM
- NSIYHKSSTY — higher, ≥ 101 µM
- KIFTFIENK — within 1.5-fold, 0.467 µM
- NSYKEWISKK — 18-fold higher, 7.37 µM
- FIPSHNSFIK — higher, ≥ 100 µM
- SILPDINKSK — 30-fold higher, 12.7 µM
- RLSHTDIHK — 4.2-fold higher, 1.74 µM
- SIYHKSSTY — 14-fold higher, 5.93 µM
- DLMNRTFKK — higher, ≥ 100 µM
- RTFKKMMDEY — higher, ≥ 100 µM
- ATCKYGFNK — 11-fold higher, 4.75 µM
- HLSYNSIYHK — 110-fold higher, 44.2 µM
- ILNNSKFNK — within 1.5-fold, 0.42 µM
- KMMDEYNTKK — 20-fold higher, 8.48 µM
- VENNFPCSLY — higher, ≥ 85.4 µM
- KLKYVTESLK — 8-fold higher, 3.34 µM

Each sequence was assayed against HLA-A*24:02 in the same assay as above. Details: source organism: Plasmodium falciparum.

Point of comparison: NFGRGQNYW, IC50 0.229 µM. Against it:
- QYLKDGGFAF — 5.5-fold lower, 0.0419 µM
- SYRYDISEEI — 1.6-fold higher, 0.363 µM
- GYSTKAENKI — 8-fold higher, 1.84 µM
- KYLFIPSHN — 27-fold higher, 6.12 µM
- IYIHLFILN — higher, ≥ 142 µM
- RYNLYDKKL — within 1.5-fold, 0.172 µM
- SYFTYDSEEY — 97-fold higher, 22.3 µM
- LTIIYIHLF — 300-fold higher, 69.5 µM
- AYVSCYRVSF — 4-fold lower, 0.0569 µM
- KLPLESSTI — within 1.5-fold, 0.214 µM
- IFHHLIYVL — 42-fold higher, 9.59 µM
- EYKDEYADI — 9.2-fold higher, 2.1 µM
- EYPLHQEHTY — 4.4-fold higher, 0.999 µM
- IKLNIWRTF — 6.2-fold higher, 1.42 µM
- IFFNNENSI — 4-fold lower, 0.0569 µM
- YLNKYVYTI — 1.7-fold lower, 0.135 µM
- DMKNYGTNLF — 23-fold higher, 5.3 µM
- GYNWGNYNTE — higher, ≥ 100 µM
- AYLNKYVYTI — 1.8-fold lower, 0.127 µM
- IYKRELYNI — 2.6-fold lower, 0.0868 µM
- DFVIIPHYTF — within 1.5-fold, 0.289 µM
- PYISKYGNKL — within 1.5-fold, 0.179 µM
- PFHKKFISFF — 6.4-fold lower, 0.0356 µM
- NYKLGVQYFF — 110-fold higher, 26.3 µM
- YYRSSRGECI — within 1.5-fold, 0.175 µM
- NYMGNPWTE — 170-fold higher, 37.9 µM
- SYNSIYHKS — 250-fold higher, 57.7 µM

What follows are sequences tested against HLA-B*07:02 in the same assay as above. Details: source organism: Plasmodium falciparum.

Point of comparison: IPFHKKFISF, IC50 21.9 µM. Against it:
- CPRKNLQNA — 45-fold lower, 0.484 µM
- NPQQSVGENG — higher, ≥ 100 µM
- SPNDNINVT — 1.6-fold higher, 36.1 µM
- ITSDHLRQM — higher, ≥ 183 µM
- FPCSLYKDEI — higher, ≥ 100 µM
- FVLENGVCI — higher, ≥ 284 µM
- KPECVCKENL — higher, ≥ 206 µM
- MPKAVIGSSP — higher, ≥ 293 µM
- KPHECVCNKQ — higher, ≥ 100 µM
- KPEKYGNTTA — higher, ≥ 836 µM
- TIIYIHLFIL — 1.6-fold lower, 13.7 µM
- IKKKLILTII — 2-fold higher, 44.1 µM
- KRASHTTPV — higher, ≥ 100 µM
- KSAFLPTGAF — higher, ≥ 100 µM
- NPEDRNSNTL — 8.1-fold lower, 2.7 µM
- MNRTFKKMM — higher, ≥ 100 µM
- RASHTTPVL — 85-fold lower, 0.258 µM
- LQKHGFHTM — higher, ≥ 100 µM
- FNRIEYHTKI — higher, ≥ 100 µM
- MIRIKKKLIL — higher, ≥ 100 µM
- LPIKSTEEEK — higher, ≥ 100 µM
- RPYISKNDL — 90-fold lower, 0.244 µM
- SPLNLQENEM — within 1.5-fold, 22.4 µM
- TPGPLDNTSE — higher, ≥ 100 µM
- MDMKNYGTNL — higher, ≥ 100 µM
- HPYDINNKND — higher, ≥ 100 µM
- FITSDHLRQM — higher, ≥ 100 µM
- KVKDSWITL — 48-fold lower, 0.458 µM
- RPNDCESVL — 58-fold lower, 0.377 µM
- IPHYTFLDYY — higher, ≥ 100 µM
- LPLKIENREY — higher, ≥ 100 µM
- LPSAKNNCEY — higher, ≥ 100 µM

The sequences below were run against HLA-B*44:02 in the same assay as above. Details: source organism: Plasmodium falciparum.

Point of comparison: VENNFPCSLY, IC50 6.02 µM. Against it:
- LEFVCSNRDF — within 1.5-fold, 7.46 µM
- NDVPIKMEYF — higher, ≥ 100 µM
- KEMKHIFNRI — 6.5-fold higher, 39.2 µM
- EELQITQWI — 3.3-fold higher, 19.6 µM
- YENKSLTHYL — higher, ≥ 112 µM
- GEEKRASHTT — 1.7-fold higher, 10 µM
- NEYSLFITS — higher, ≥ 100 µM
- FEWHTLSKEY — 3.2-fold higher, 19.1 µM
- EENYRCTQDI — higher, ≥ 674 µM
- KEIDNDKENI — higher, ≥ 100 µM
- SECDIGLIY — higher, ≥ 100 µM
- NDNNFAECY — higher, ≥ 100 µM
- IEIVERSNY — within 1.5-fold, 8.03 µM
- NENNENNFL — higher, ≥ 100 µM
- KEKHLNNIF — higher, ≥ 100 µM
- NEIDKLTFSL — higher, ≥ 332 µM
- DEYIHKLIL — higher, ≥ 100 µM
- EEKDDIKNG — higher, ≥ 100 µM
- KEKFYKNNLY — higher, ≥ 919 µM
- NEKNDVKNN — higher, ≥ 100 µM
- KDLSDMTNI — higher, ≥ 100 µM
- VQYFFLRPYI — higher, ≥ 100 µM
- KEYNNSEITI — 1.8-fold higher, 11 µM
